This note sets out measurements from paper PMC10814857 (2024).

Assay in all cases: FP
Assay [1] deals with RP2, fluorescein-labelled reference peptide from the N-terminal extension of the RHO GTPase WRCH1/RHOU (human, UniProt Q7L0Q8, fluorescein (FITC) label, position not stated).
Assay [2] has as its target RP1, fluorescein-labelled reference peptide, a SOS1 derivative encompassing part of P3 (human, UniProt Q07889, fluorescein (FITC) label, position not stated).
The target of assay [3] is P7, fluorescein-labelled proline-rich peptide from the SOS1 proline-rich domain (human, UniProt Q07889, fluorescein (FITC) label, position not stated).
Assay [4] addresses P9, fluorescein-labelled proline-rich peptide from the SOS1 proline-rich domain (human, UniProt Q07889, fluorescein (FITC) label, position not stated).
Assay [5] addresses P3, fluorescein-labelled proline-rich peptide from the SOS1 proline-rich domain (human, UniProt Q07889, fluorescein (FITC) label, position not stated).
In assay [6] the target is P2, fluorescein-labelled proline-rich peptide from the SOS1 proline-rich domain (human, UniProt Q07889, fluorescein (FITC) label, position not stated).
The target of assay [7] is P4, fluorescein-labelled proline-rich peptide from the SOS1 proline-rich domain (human, UniProt Q07889, fluorescein (FITC) label, position not stated).

B1: NCK1-3, third SH3 domain of NCK1, GST cleaved (domain or fragment)
chain: QVLHVVQALYPFSSSNDEELNFEKGDVMDVIEKPENDPEWWKCRKINGMVGLVPKNYVTVMQN
The term Kd denotes a measure of binding affinity in units of concentration. A higher Kd goes with weaker binding. In the case of B1, the figures for the Kd in assay [1] and in assay [2] were 2.5 µM and 24.6 µM, respectively.

B2: NCK1-2 SH3 domain, GST cleaved (domain or fragment)
chain: DLNMPAYVKFNYMAEREDELSLIKGTKVIVMEKCSDGWWRGSYNGQVGWFPSNYVTEEGD
For the molecule B2, in assay [2], binding was characterised by a dissociation constant (Kd) of 2 µM.

B3: BIN1 SH3 domain, GST cleaved (domain or fragment)
chain: GFMFKVQAQHDYTATDTDELQLKAGDVVLVIPFQNPEEQDEGWLMGVKESDWNQHKELEKCRGVFPENFTERVP
As to B3, the Kd in assay [3] was found to be 12 µM; in assay [4], 47 µM; in assay [1], 48 µM.

B4: DLG2 SH3 domain, GST cleaved (domain or fragment)
chain: KRSLYVRAMFDYDKSKDSGLPSQGLSFKYGDILHVINASDDEWWQARRVMLEGDSEEMGVIPSKRRVERKE
B4: in assay [3], the Kd was 58.5 µM.

B5: ARHGAP12 SH3 domain, GST cleaved (domain or fragment)
chain: PGQVYIEVEYDYEYEAKDRKIVIKQGERYILVKKTNDDWWQVKPDENSKAFYVPAQYVKEVTR
As for B5, the results for the Kd in assay [1], in assay [2] and in assay [5] were 15.5 µM, 16.7 µM and 13.8 µM, respectively.

B6: ARHGEF30 (Obscurin/OBSCN) SH3 domain, GST cleaved (domain or fragment)
chain: EIFDIYVVTADYLPLGAEQDAITLREGQYVEVLDAAHPLRWLVRTKPTKSSPSRQGWVSPAYLDRRLK
In turn, B6 showed a Kd in assay [3] of 8.9 µM.

B7: ABI1 SH3 domain, GST cleaved (domain or fragment)
chain: NYIEKVVAIYDYTKDKDDELSFMEGAIIYVIKKNDDGWYEGVCNRVTGLFPGNYVESIMH
Consider B7, for which the results for the Kd in assay [6] and in assay [7] were 60.7 µM and 24.6 µM, respectively.

B8: ABL2 SH3 domain, GST cleaved (domain or fragment)
chain: SDPNLFVALYDFVASGDNTLSITKGEKLRVLGYNQNGEWSEVRSKNGQGWVPSNYITPVNS
Regarding B8, the values for the Kd in assay [3], in assay [2] and in assay [7] were 67.3 µM, 11 µM and 125 µM, respectively.
